# Measured values taken from publication PMC4783044, “Stoichiometry and Change of the mRNA Closed-Loop Factors as Translating Ribosomes Transit from Initiation to Elongation” (PLoS ONE, 2016).
# B1: eIF4G1-GFP (natural protein, yeast, UniProt P39935 1-952, looked up)
# chain: MTDETAHPTQSASKQESAALKQTGDDQQESQQQRGYTNYNNGSNYTQKKPYNSNRPHQQRGGKFGPNRYNNRGNYNGGGSFRGGHMGANSSNVPWTGYYNNYPVYYQPQQMAAAGSAPANPIPVEEKSPVPTKIEITTKSGEHLDLKEQHKAKLQSQERSTVSPQPESKLKETSDSTSTSTPTPTPSTNDSKASSEENISEAEKTRRNFIEQVKLRKAALEKKRKEQLEGSSGNNNIPMKTTPENVEEKGSDKPEVTEKTKPAEEKSAEPEVKQETPAEEGEQGEKGQIKEESTPKVLTFAERLKLKKQQKEREEKTEGKENKEVPVQEETKSAIESAPVPPSEQVKEETEVAETEQSNIDESATTPAIPTKSDEAEAEVEAEAGDAGTKIGLEAEIETTTDETDDGTNTVSHILNVLKDATPIEDVFSFNYPEGIEGPDIKYKKEHVKYTYGPTFLLQFKDKLNVKADAEWVQSTASKIVIPPGMGRGNRSRDSGRFGNNSSRGHDFRNTSVRNMDDRANSRTSSKRRSKRMNDDRRSNRSYTSRRDRERGSYRNEEKREDDKPKEEVAPLVPSANRWVPKFKSKKTEKKLAPDGKTELLDKDEVERKMKSLLNKLTLEMFDAISSEILAIANISVWETNGETLKAVIEQIFLKACDEPHWSSMYAQLCGKVVKELNPDITDETNEGKTGPKLVLHYLVARCHAEFDKGWTDKLPTNEDGTPLEPEMMSEEYYAAASAKRRGLGLVRFIGFLYRLNLLTGKMMFECFRRLMKDLTDSPSEETLESVVELLNTVGEQFETDSFRTGQATLEGSQLLDSLFGILDNIIQTAKISSRIKFKLIDIKELRHDKNWNSDKKDNGPKTIQQIHEEEERQRQLKNNSRSNSRRTNNSSNRHSFRRDAPPASKDSFITTRTYSQRNSQRAPPPKEEPAAPTSTATNMFSALMGESDDEE
# notes: eIF4G1 of yeast, GFP fusion; the printed name puts GFP after the protein; also called eIFG1; source: yeast strain carrying the GFP fusion at the chromosomal location, in crude extract
# Key:
# Flag-PAB1 [1] = molecular target: T1, Flag-PAB1 (yeast, UniProt P04147 1-577); assay: co-IP + AUC; as a1, but material migrating from 90S to 200S (polysomal translating complexes); cells on glucose (elongation), or glucose depleted 10 min and glucose added back for 1 min (initiation); settings: partners not purified
# T1 sequence (looked up): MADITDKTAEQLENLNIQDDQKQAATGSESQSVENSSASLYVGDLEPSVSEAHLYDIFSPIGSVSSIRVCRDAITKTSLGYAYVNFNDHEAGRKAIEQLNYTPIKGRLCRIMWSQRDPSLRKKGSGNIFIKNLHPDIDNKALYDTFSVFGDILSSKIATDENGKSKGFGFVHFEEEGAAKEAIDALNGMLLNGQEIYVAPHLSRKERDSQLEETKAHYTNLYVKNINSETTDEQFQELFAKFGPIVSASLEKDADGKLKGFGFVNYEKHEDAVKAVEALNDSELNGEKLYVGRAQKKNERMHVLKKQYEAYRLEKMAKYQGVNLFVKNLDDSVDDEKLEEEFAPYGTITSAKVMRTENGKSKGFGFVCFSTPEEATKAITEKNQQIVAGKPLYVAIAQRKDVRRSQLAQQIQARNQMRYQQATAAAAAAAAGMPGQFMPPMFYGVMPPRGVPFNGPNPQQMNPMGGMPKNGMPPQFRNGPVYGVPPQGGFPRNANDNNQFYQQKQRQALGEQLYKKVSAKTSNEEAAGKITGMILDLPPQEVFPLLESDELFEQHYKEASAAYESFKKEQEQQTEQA
# eIF4E-Flag [2] = molecular target: T2, eIF4E-Flag (yeast, UniProt P07260 1-213); assay: as above; settings: partners not purified
# T2 sequence (looked up): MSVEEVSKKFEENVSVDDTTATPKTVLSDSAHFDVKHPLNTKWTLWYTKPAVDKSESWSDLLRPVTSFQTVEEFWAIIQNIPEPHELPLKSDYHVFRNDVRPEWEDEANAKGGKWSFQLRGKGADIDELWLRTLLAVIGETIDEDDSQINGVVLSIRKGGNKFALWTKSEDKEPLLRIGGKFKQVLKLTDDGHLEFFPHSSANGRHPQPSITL
# Flag-PAB1 [3] = molecular target: T1, Flag-PAB1; assay: co-IP + AUC; one-step anti-Flag bead purification from yeast crude extract (Tris pH 7.5, 0.15 M KCl, 2 mM MgCl2, 10% glycerol, 4°C), Flag peptide elution, then AU-FDS of the GFP fusion with AU-A230 or AU-A260 (20°C, 15,000 rpm); material migrating at 77S (monosomal translating complex); cycloheximide added to cells; cells on glucose (elongation), or glucose depleted 10 min and glucose added back for 1 min or 0 min …; settings: partners not purified
# eIF4E-Flag [4] = molecular target: T2, eIF4E-Flag; assay: as above; settings: partners not purified
# Flag-SBP1 (yeast) = Flag-SBP1 (yeast) (UniProt P10080); assay: co-IP + AUC; one-step anti-Flag bead purification from yeast crude extract (Tris pH 7.5, 0.15 M KCl, 2 mM MgCl2, 10% glycerol, 4°C), Flag peptide elution, then AU-FDS of the GFP fusion with AU-A230 or AU-A260 (20°C, 15,000 rpm); material migrating at 77S (monosomal translating complex); cycloheximide added to cells; cells on glucose (elongation), or glucose depleted 10 min and glucose added back for 1 min or 0 min (initiation)
# Flag-SBP1 (yeast), sequence (P10080 whole entry, the tested form may be a part): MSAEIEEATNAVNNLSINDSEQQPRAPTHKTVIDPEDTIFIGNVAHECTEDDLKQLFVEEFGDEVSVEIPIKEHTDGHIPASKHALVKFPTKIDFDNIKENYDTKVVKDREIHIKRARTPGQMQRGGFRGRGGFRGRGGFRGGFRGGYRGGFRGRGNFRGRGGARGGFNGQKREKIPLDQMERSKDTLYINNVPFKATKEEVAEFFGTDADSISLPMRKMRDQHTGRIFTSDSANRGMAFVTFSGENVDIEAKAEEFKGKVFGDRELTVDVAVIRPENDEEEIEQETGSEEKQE
binder,measurement,setting,value
B1,"relative level in the polysomal translating complexes (90S to 200S), mRNA set at 100 (elongation)",Flag-PAB1 [1],18 per 100 mRNA
same,"relative level in the polysomal translating complexes (90S to 200S), mRNA set at 100 (initiation)",Flag-PAB1 [1],26 per 100 mRNA
same,"relative level in the polysomal translating complexes (90S to 200S), mRNA set at 100 (elongation)",eIF4E-Flag [2],75 per 100 mRNA
same,"relative level in the polysomal translating complexes (90S to 200S), mRNA set at 100 (initiation)",eIF4E-Flag [2],79 per 100 mRNA
same,"relative level in the 77S monosomal translating complex, mRNA set at 100 (elongation)",Flag-PAB1 [3],5.6 per 100 mRNA
same,"relative level in the 77S monosomal translating complex, mRNA set at 100 (initiation)",Flag-PAB1 [3],8.7 per 100 mRNA
same,"relative level in the 77S monosomal translating complex, mRNA set at 100 (elongation)",eIF4E-Flag [4],19 per 100 mRNA
same,"relative level in the 77S monosomal translating complex, mRNA set at 100 (initiation)",eIF4E-Flag [4],20 per 100 mRNA
same,"relative level in the 77S monosomal translating complex, mRNA set at 100 (elongation)",Flag-SBP1 (yeast),< 0.3 per 100 mRNA
